# Data reported in patent US20040043420A1, “Method of identifying conformation-sensitive binding peptides and uses thereof” (priority 2003, published 2004).
# Legend:
# ER β, Q92731 [1] = target: T1, ER β, Q92731; assay: peptide probe binding to ERβ, all modulators
# T1 chain: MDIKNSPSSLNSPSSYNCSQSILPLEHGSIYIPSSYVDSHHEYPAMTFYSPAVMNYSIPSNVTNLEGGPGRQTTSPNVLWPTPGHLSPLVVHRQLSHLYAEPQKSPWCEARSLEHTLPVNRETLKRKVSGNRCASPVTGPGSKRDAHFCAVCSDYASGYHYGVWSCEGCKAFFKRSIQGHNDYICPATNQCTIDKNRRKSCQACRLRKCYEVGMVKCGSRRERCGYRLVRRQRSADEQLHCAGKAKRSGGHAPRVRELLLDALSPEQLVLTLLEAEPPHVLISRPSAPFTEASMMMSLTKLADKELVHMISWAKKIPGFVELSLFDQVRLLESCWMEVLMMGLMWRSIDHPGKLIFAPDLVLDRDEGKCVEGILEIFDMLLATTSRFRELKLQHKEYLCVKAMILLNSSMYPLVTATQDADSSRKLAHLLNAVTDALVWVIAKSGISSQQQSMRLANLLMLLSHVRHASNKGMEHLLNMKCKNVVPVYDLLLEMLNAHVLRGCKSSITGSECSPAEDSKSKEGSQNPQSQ
# ER β, Q92731 [2] = target: T1, ER β, Q92731; assay: phage ELISA, raloxifene 1 µM
# ER β, Q92731 [3] = target: T1, ER β, Q92731; assay: phage ELISA, ICI 182,780 1 µM
# ER β, Q92731 [4] = target: T1, ER β, Q92731; assay: phage ELISA, clomiphene 10 µM
# ER β, Q92731 [5] = target: T1, ER β, Q92731; assay: phage ELISA, 4-OH tamoxifen 1 µM
# ER α, P03372 [6] = target: T2, ER α, P03372; assay: peptide probe binding to ERα, Buffer
# T2 chain: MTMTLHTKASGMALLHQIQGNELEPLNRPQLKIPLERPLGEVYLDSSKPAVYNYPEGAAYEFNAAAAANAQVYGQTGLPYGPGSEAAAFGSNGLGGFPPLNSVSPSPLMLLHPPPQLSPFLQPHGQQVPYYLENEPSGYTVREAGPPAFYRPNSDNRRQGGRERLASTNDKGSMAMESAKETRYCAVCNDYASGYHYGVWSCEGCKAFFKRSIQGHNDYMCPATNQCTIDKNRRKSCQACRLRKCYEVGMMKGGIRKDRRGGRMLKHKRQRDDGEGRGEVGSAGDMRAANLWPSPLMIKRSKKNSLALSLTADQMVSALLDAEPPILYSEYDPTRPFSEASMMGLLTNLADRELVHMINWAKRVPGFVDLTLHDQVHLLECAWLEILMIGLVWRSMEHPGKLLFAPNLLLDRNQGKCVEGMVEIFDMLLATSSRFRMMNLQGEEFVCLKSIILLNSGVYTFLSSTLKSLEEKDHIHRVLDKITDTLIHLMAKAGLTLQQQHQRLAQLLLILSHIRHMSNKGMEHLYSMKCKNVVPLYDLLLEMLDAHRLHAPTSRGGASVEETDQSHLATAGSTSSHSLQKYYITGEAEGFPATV
# ER α, P03372 [7] = target: T2, ER α, P03372; assay: peptide probe binding to ERα, GW7604
# ER β, Q92731 [8] = target: T1, ER β, Q92731; assay: peptide probe binding to ERβ, Buffer
# ER α, P03372 [9] = target: T2, ER α, P03372; assay: peptide probe binding to ERα, Estriol
# ER β, Q92731 [10] = target: T1, ER β, Q92731; assay: peptide probe binding to ERβ, Estriol
# ER β, Q92731 [11] = target: T1, ER β, Q92731; assay: peptide probe binding to ERβ, GW 7604
# ER α, P03372 [12] = target: T2, ER α, P03372; assay: peptide probe binding to ERα, Clomiphene
# ER α, P03372 [13] = target: T2, ER α, P03372; assay: peptide probe binding to ERα, Nafoxidine
# ER α, P03372 [14] = target: T2, ER α, P03372; assay: peptide probe binding to ERα, Raloxifene
# ER α, P03372 [15] = target: T2, ER α, P03372; assay: peptide probe binding to ERα, ICI 182,780
# ER α, P03372 [16] = target: T2, ER α, P03372; assay: peptide probe binding to ERα, 17α-Estradiol
# ER α, P03372 [17] = target: T2, ER α, P03372; assay: peptide probe binding to ERα, 17β-Estradiol
# ER β, Q92731 [18] = target: T1, ER β, Q92731; assay: peptide probe binding to ERβ, 17α-Estradiol
# ER β, Q92731 [19] = target: T1, ER β, Q92731; assay: peptide probe binding to ERβ, 17β-Estradiol
# ER α, P03372 [20] = target: T2, ER α, P03372; assay: peptide probe binding to ERα, 4-OH Tamoxifen
# ER α, P03372 [21] = target: T2, ER α, P03372; assay: peptide probe binding to ERα, Diethylstilbesterol
# ER β, Q92731 [22] = target: T1, ER β, Q92731; assay: peptide probe binding to ERβ, Diethylstilbesterol
# ER β [23] = target: T3, ER β (UniProt Q92731 1-530, limits assumed); assay: phage ELISA, ICI 182,780 1 µM
# T3 construct: In vitro; also called estrogen receptor β; ERβ-ERE
# ER α [24] = target: T4, ER α (UniProt P03372 1-595, limits assumed); assay: peptide probe binding to ERα, Buffer
# T4 construct: also called estrogen receptor α; ERα-ERE
# T4 sequence (looked up): T2 chain
# ER α [25] = target: T4, ER α; assay: peptide probe binding to ERα, GW7604
# ER β [26] = target: T3, ER β; assay: peptide probe binding to ERβ, Buffer
# ER α [27] = target: T4, ER α; assay: peptide probe binding to ERα, Estriol
# ER β [28] = target: T3, ER β; assay: peptide probe binding to ERβ, Estriol
# ER β [29] = target: T3, ER β; assay: peptide probe binding to ERβ, GW 7604
# ER α [30] = target: T4, ER α; assay: peptide probe binding to ERα, Nafoxidine
# ER α [31] = target: T4, ER α; assay: peptide probe binding to ERα, Raloxifene
# ER β [32] = target: T3, ER β; assay: peptide probe binding to ERβ, Clomiphene
# ER β [33] = target: T3, ER β; assay: peptide probe binding to ERβ, Nafoxidine
# ER β [34] = target: T3, ER β; assay: peptide probe binding to ERβ, Raloxifene
# ER α [35] = target: T4, ER α; assay: peptide probe binding to ERα, ICI 182,780
# ER β [36] = target: T3, ER β; assay: peptide probe binding to ERβ, ICI 182,780
# ER α [37] = target: T4, ER α; assay: peptide probe binding to ERα, 17α-Estradiol
# ER α [38] = target: T4, ER α; assay: peptide probe binding to ERα, 17β-Estradiol
# ER β [39] = target: T3, ER β; assay: peptide probe binding to ERβ, 17α-Estradiol
# ER β [40] = target: T3, ER β; assay: peptide probe binding to ERβ, 17β-Estradiol
# ER α [41] = target: T4, ER α; assay: peptide probe binding to ERα, 4-OH Tamoxifen
# ER β [42] = target: T3, ER β; assay: peptide probe binding to ERβ, 4-OH Tamoxifen
# ER α [43] = target: T4, ER α; assay: peptide probe binding to ERα, Diethylstilbesterol
# ER β [44] = target: T3, ER β; assay: peptide probe binding to ERβ, Diethylstilbesterol
# ER α [45] = target: T4, ER α; assay: phage ELISA, ICI 182,780 1 µM
# ER α [46] = target: T4, ER α; assay: affinity of phage class for unliganded ER α
binder,measurement,setting,value
SAPRATISHYLMGG (modifications not checked) [α/β II],Equiv.,"ER β, Q92731 [1]",0%
SSNHQSSRLIELLSR (modifications not checked) [phage 4 (Table 2)],phage ELISA grade,"ER β, Q92731 [2]",0
same,phage ELISA grade,"ER β, Q92731 [3]",0
same,phage ELISA grade,"ER β, Q92731 [4]",0
same,phage ELISA grade,"ER β, Q92731 [5]",0
same,Equiv.,"ER α, P03372 [6]",0%
same,Equiv.,"ER α, P03372 [7]",0%
same,Equiv.,"ER β, Q92731 [8]",0%
same,Equiv.,"ER α, P03372 [9]",65%
same,Equiv.,"ER β, Q92731 [10]",81%
same,Equiv.,"ER β, Q92731 [11]",0%
same,Equiv.,"ER α, P03372 [12]",0%
same,Equiv.,"ER α, P03372 [13]",0%
same,Equiv.,"ER α, P03372 [14]",0%
same,Equiv.,"ER α, P03372 [15]",0%
same,Equiv.,"ER α, P03372 [16]",53%
same,Equiv.,"ER α, P03372 [17]",100%
same,Equiv.,"ER β, Q92731 [18]",44%
same,Equiv.,"ER β, Q92731 [19]",100%
same,Equiv.,"ER α, P03372 [20]",0%
same,Equiv.,"ER α, P03372 [21]",71%
same,Equiv.,"ER β, Q92731 [22]",68%
SSPGSREWFKDMLSR (also called α/β V; AB5) [14T-β],phage ELISA grade,ER β [23],0
same,Equiv.,ER α [24],0%
same,Equiv.,ER α [25],0%
same,Equiv.,ER β [26],0%
same,Equiv.,ER α [27],0%
same,Equiv.,ER β [28],0%
same,Equiv.,ER β [29],0%
same,Equiv.,ER α [30],0%
same,Equiv.,ER α [31],0%
same,Equiv.,ER β [32],13%
same,Equiv.,ER β [33],0%
same,Equiv.,ER β [34],0%
same,Equiv.,ER α [35],0%
same,Equiv.,ER β [36],0%
same,Equiv.,ER α [37],0%
same,Equiv.,ER α [38],0%
same,Equiv.,ER β [39],0%
same,Equiv.,ER β [40],0%
same,Equiv.,ER α [41],100%
same,Equiv.,ER β [42],100%
same,Equiv.,ER α [43],0%
same,Equiv.,ER β [44],0%
SRLPPSVFSMCGSEVCLSR (also called 9T-β; 9Tβ) [T1-10],phage ELISA grade,ER α [45],0
same,Equiv.,ER α [24],0%
same,Equiv.,ER α [25],0%
same,Equiv.,ER β [28],-75%
same,Equiv.,ER α [31],0%
same,Equiv.,ER α [35],-100%
same,Equiv.,ER α [41],100%
same,Equiv.,ER α [43],0%
HGPLTLNLLRSSGG [#41 ER + estradiol (Table 3)],binding result,ER α [46],binds
